Results taken from the supplement of paper PMC10567573.

B1: SNURF (parent)
chain: QVPVVDFQAELRQAFLAETPRGG
B2: CROP (parent)
chain: VFGRGDNISDVSKFLEDDKWMEE

Variants of: B1
Assay: protein stability index of a GFP-peptide fusion (GPS, HEK-293T) (PSI 1-6); higher = more stable
Details: c terminus: native
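Note: lentivirally expressed fusions sorted by FACS into six bins by GFP to DsRed ratio, PSI derived from sequencing read proportions per bin multiplied by bin number.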

Protein stability index of substitutions, site by site:
R21: L 2.66 | P 3.47 | K 1.78 | N 2.15 | A 4.22
G23: E 1.85 | W 1.5 | F 2.27 | S 3.16 | A 2.38 | L 3.09 | D 3.97 | N 1.92 | H 1.77 | V 2.52 | Q 2.42 | C 1.66 | M 1.71 | K 4.37 | T 3.93 | I 2.06 | Y 3.06
P20: Y 3.23
G22: V 3.34 | S 1.94 | N 2.5 | K 2.04 | F 2.29 | H 2.79 | T 2.57 | R 2.73 | I 2.95 | C 1.99 | D 4.09 | Y 2.51 | E 3.26 | M 1.95 | L 2.66

Variants of: B2
Assay: as above
Details: c terminus: native

Protein stability index, by site and new letter:
M21: P 1.38 | A 1.86 | H 2.25 | G 4.04 | S 2.52 | T 2.51 | F 2.28 | Y 2.28 | E 4 | V 1.87 | N 1.43 | D 4.49 | Q 2.94
I8: S 2.48 | C 2.81 | N 1.44 | E 2.9 | K 2.23 | M 2.05 | L 2.11 | G 3.51 | P 2.03 | D 1.89 | H 1.93 | F 2 | Y 1.74 | R 2.92 | A 2.35
W20: Y 3.39 | D 4.04 | F 4.18 | K 3.78 | T 4.17 | Q 3.4 | N 4.72 | M 3.12 | E 4.25 | A 4.2 | G 3.92 | R 3.94 | I 3.97 | H 4.34 | L 2.54
E22: H 4.54 | S 4.51 | P 4.33 | L 4.07 | D 4.23 | F 3.47 | W 3.33 | N 4.31 | V 4.25 | C 4.69 | R 3.32
D17: Q 2 | V 1 | T 2.04 | A 2.29 | Y 2.73 | R 2.25 | N 2.26 | E 2.41 | S 1.52 | I 3.52 | H 1.34
N7: M 1.64 | E 1.4 | A 1.68 | G 1.77 | R 2.61 | T 1.89 | Y 1.97 | I 2.21 | V 1.53 | C 2.37 | Q 1.79 | H 2.12
E23: H 4.53 | Y 3.76 | N 4.41 | A 4.36 | P 3.67 | I 4.38 | S 4.6 | C 4.1 | F 3.61 | T 4.08 | L 3.54 | V 4.08 | K 4.76 | M 4.68 | R 4.6
D10: V 2.63 | G 2.11 | A 1.99 | P 1.69 | M 2.75 | E 2.1 | I 1.99 | N 2.04 | K 1.99 | S 2.09 | T 2.74
V11: K 2.6 | F 2.15 | Q 2.87 | N 2.33 | T 1.49 | L 1.61 | G 2.11 | I 2.39 | C 2.35 | E 2.39 | R 2.12 | W 2.43 | P 3.27
S12: G 1.41 | R 1.92 | Y 1.74 | K 2.2 | T 2.67 | C 1.73 | P 1.61 | V 1.86 | E 2.56 | A 1.4 | Q 2.19 | D 2 | H 2.31 | I 2.32
K13: F 2.04 | M 2.69 | D 2.83 | A 2.29 | R 1.89 | P 1.14 | N 1.91 | E 2.41 | S 2.65 | C 1.74 | I 2.69 | H 1.71 | V 1.54
K19: D 2.63 | F 3.11 | Y 2.22 | W 1.75 | P 3.01 | L 1.89 | E 3.41 | A 1.27 | C 1.62 | S 3.53 | M 1.21 | G 1.95 | N 2.35 | I 2.28
R4: M 2.77 | K 2.41 | G 2.16 | Q 1.99 | D 2.4 | A 2.43 | P 1.51 | S 2.33 | W 1.39 | H 2.19 | N 2.1 | C 2.66 | F 2.19 | Y 2.31
D18: C 1.47 | Q 2.98 | K 2.69 | H 1.49 | L 1.97 | V 1.77 | N 2.44 | S 1.31 | F 1.66 | T 1.78 | A 1.3
D6: P 2.32 | I 2.48 | K 2.01 | W 4.02 | Q 2.4 | G 2.08 | R 2.16 | L 2.91
L15: E 3.77 | G 2.8 | C 2.64 | K 3.01 | R 2.91 | P 2.81 | D 1.85 | H 3.35 | T 3.47 | A 3.09 | W 2.1 | Q 3.7 | I 1.93 | V 1.94 | Y 2.21
G3: C 2.48 | A 2.83 | M 1.51 | V 1.51 | D 2.21 | P 2.84 | W 2.36 | R 2.1 | F 1.44
V1: I 1.43 | A 2.11 | H 2.59 | M 1.84 | P 2.76 | S 2.11 | K 2.73 | C 1.97 | D 3.13 | R 2.37
S9: N 1.78 | F 1.63 | L 3.1 | V 2.11 | T 2.43 | A 2.31 | D 2.12 | M 2.47 | Q 2.41 | E 2.44 | P 3.03 | Y 2.3 | I 1.97
E16: M 1.1 | T 1.66 | V 2.59 | S 2.03 | F 2.42 | C 1.46 | K 1.97 | L 2.72 | Q 1.95 | N 3.11 | I 1.65 | P 2.12
F14: P 4.07 | D 3.96 | I 3.83 | R 3.29 | M 2.42 | K 4.08 | S 4.16 | L 2.43 | Y 2.03 | N 3.54 | W 1.96 | E 4.92 | V 3.01 | A 4.31 | C 3.8 | G 2.58 | Q 3.34
G5: D 2.29 | C 2.27 | A 2.03 | T 2.63 | I 2.77 | M 1.14 | W 2.02 | K 3.07 | P 2.54 | L 2.16 | V 1.61 | S 3.13 | R 1.74 | Y 1.32
F2: A 2.88 | Y 1.66 | E 4.33 | P 2.66 | W 2.85 | Q 2.99 | D 3.87 | C 3.7 | L 1.97 | G 2.79 | I 1.8 | H 3.4 | N 2.87 | V 2.64 | S 2.83 | T 3.29
